Test results published in article PMC6109231.

Target: heat shock protein 60 (HSP60) (human (endogenous in HEK293T)), P10809
Assay: negative-stain EM, single-particle analysis; SEC fraction 4 (1.5 to 2 MDa) of HEK293T lysate, Superdex 200 in PBS pH 7.2 at 4°C; 2% uranyl acetate; raw micrographs, reference-free 2D class averages, 3D classification (RELION) and ab initio reconstruction (cryoSPARC); proteins identified by mass spectrometry of the fraction
Settings: remark: other sources report otherwise

- stoichiometry N: 7
B1: heat shock protein 60 (HSP60), P10809 27-573 (natural protein)
chain: AKDVKFGADARALMLQGVDLLADAVAVTMGPKGRTVIIEQSWGSPKVTKDGVTVAKSIDLKDKYKNIGAKLVQDVANNTNEEAGDGTTTATVLARSIAKEGFEKISKGANPVEIRRGVMLAVDAVIAELKKQSKPVTTPEEIAQVATISANGDKEIGNIISDAMKKVGRKGVITVKDGKTLNDELEIIEGMKFDRGYISPYFINTSKGQKCEFQDAYVLLSEKKISSIQSIVPALEIANAHRKPLVIIAEDVDGEALSTLVLNRLKVGLQVVAVKAPGFGDNRKNQLKDMAIATGGAVFGEEGLTLNLEDVQPHDLGKVGEVIVTKDDAMLLKGKGDKAQIEKRIQEIIEQLDVTTSEYEKEKLNERLAKLSDGVAVLKVGGTSDVEVNEKKDRVTDALNATRAAVEEGIVLGGGCALLRCIPALDSLTPANEDQKIGIEIIKRTLKIPAMTIAKNAGVEGSLIVEKIMQSSSEVGYDAMAGDFVNMVEKGIIDPTKVVRTALLDAAGVASLLTTAEVVVTEIPKEEKDPGMGAMGGMGGGMGGGMF
